The source of these data is the RNAGym collection of RNA variant scans (doi:10.7554/elife.80360).

The chains are these.
B1: CPEB3 Ribozyme (parent)
chain: GGGGGCCACAGCAGAAGCGUUCACGUCGCGGCCCCUGUCAGAUUCUGGUGAAUCUGCGAAUUCUGCUGU

In the data set the parent is B1. As to the kind of experiment: self-cleavage, relative activity (ratio to wild type); higher = more cleavage; co-transcriptional.
Take A10U C12G: the self-cleavage came to 0.859.

Consider A10G G65C, for which the self-cleavage was 0.288.

As to A10G C33A, the self-cleavage was 0.926.

Regarding A10G G47C, the self-cleavage was found to be 0.927.

Regarding A10G G47A, the self-cleavage was determined as 0.986.

A10G A52C: the self-cleavage was 0.776.

Take A10G A52U: the self-cleavage was 0.834.

As for A10U A52C, the self-cleavage stood at 1.

On to A10U A52G, for which the self-cleavage was determined as 1.03.

Turning to A10G U64A, the self-cleavage worked out at 0.33.

Consider A10G U64C, for which the self-cleavage turned out to be 0.406.

A10G A51U: the self-cleavage was found to be 0.825.

As for A10G A51C, the self-cleavage came out at 0.73.

Take A10G A51G: the self-cleavage came out at 0.857.

Take A10G G19U: the self-cleavage came out at 0.162.

A10G G19C: the self-cleavage is 0.104.

For A10G G19A, the self-cleavage was found to be 0.157.

With A10G C57G, the self-cleavage came to 0.199.

Take A10G C57U: the self-cleavage came to 0.284.

For the variant A10G C57A, the self-cleavage came out at 0.322.

A10G C66U: the self-cleavage is 0.645.

In the case of A10G C66G, the self-cleavage came to 0.35.

On to A10G U20C, for which the self-cleavage is 0.115.

Turning to A10G U20G, the self-cleavage is 0.135.

As for A10U A15U, the self-cleavage stood at 0.772.

Regarding A10U A15G, the self-cleavage was 0.999.

As for A10U C35U, the self-cleavage was 0.976.

Turning to A10U G31C, the self-cleavage is 0.262.

Consider A10G G37C, for which the self-cleavage is 0.175.

Turning to A10G U44A, the self-cleavage was 0.702.

As for A10G U44C, the self-cleavage is 0.498.

In the case of A10G G17U, the self-cleavage stood at 0.106.

For A10G G17A, the self-cleavage was determined as 0.132.

In the case of A10U C24G, the self-cleavage was determined as 0.569.

Consider A10U C24U, for which the self-cleavage was 0.82.

Turning to A10U C24A, the self-cleavage is 0.796.

In the case of A10G C34A, the self-cleavage was found to be 0.89.

On to A10G C34G, for which the self-cleavage turned out to be 0.82.

A10U A42U: the self-cleavage worked out at 0.999.

Regarding A10U A42G, the self-cleavage turned out to be 0.899.

In the case of A10G G31U, the self-cleavage stood at 0.868.

Turning to A10G G31A, the self-cleavage is 0.953.

With A10G A60G, the self-cleavage was determined as 0.656.

With A10G G50U, the self-cleavage was 0.87.

Regarding A10G G50C, the self-cleavage amounted to 0.818.

As for A10G G28A, the self-cleavage worked out at 0.254.

For the variant A10G G28U, the self-cleavage turned out to be 0.142.

On to A10U G37U, for which the self-cleavage stood at 0.203.

Take A10U G37A: the self-cleavage stood at 0.322.

Take A10U C66U: the self-cleavage turned out to be 1.01.

Turning to A10G C54G, the self-cleavage was determined as 0.404.

A10G C54A: the self-cleavage came to 0.527.

In the case of A10G C54U, the self-cleavage is 0.8.

Take A10G G68C: the self-cleavage came to 0.941.

On to A10G G68U, for which the self-cleavage is 0.917.

In the case of A10G G68A, the self-cleavage was determined as 0.943.

A10U C39G: the self-cleavage stood at 0.913.

Consider A10U C39A, for which the self-cleavage stood at 0.84.

On to A10U C39U, for which the self-cleavage was 0.984.

For the variant A10G U36G, the self-cleavage worked out at 0.155.

For A10G U36A, the self-cleavage is 0.117.

For the variant A10G U36C, the self-cleavage is 0.761.

Turning to A10U C29G, the self-cleavage worked out at 0.431.

Take A10U C29U: the self-cleavage amounted to 0.361.

As to A10U C18G, the self-cleavage stood at 0.182.

As for A10U C63A, the self-cleavage was 0.825.

Consider A10U C63G, for which the self-cleavage turned out to be 0.591.

As for A10U C33A, the self-cleavage turned out to be 0.977.

For A10U C33U, the self-cleavage amounted to 0.971.

Regarding A10U C33G, the self-cleavage was 0.922.

In the case of A10G G41U, the self-cleavage turned out to be 0.466.

Take A10G U62A: the self-cleavage amounted to 0.578.

For the variant A10G U62G, the self-cleavage worked out at 0.448.

Regarding A10U A40C, the self-cleavage is 0.516.

As to A10U A40U, the self-cleavage turned out to be 0.911.

As for A10G C29G, the self-cleavage is 0.225.

As for A10U G25U, the self-cleavage amounted to 0.162.

A10U G25C: the self-cleavage was 0.155.

Regarding A10G C24A, the self-cleavage turned out to be 0.615.

With A10G C24G, the self-cleavage worked out at 0.297.

On to A10G C24U, for which the self-cleavage came to 0.186.

Regarding A10U C22G, the self-cleavage stood at 0.174.

For A10U C22U, the self-cleavage is 0.436.

In the case of A10U C34A, the self-cleavage was determined as 0.983.

Consider A10U C34G, for which the self-cleavage is 1.01.

Regarding A10G A59U, the self-cleavage was 0.647.

As to A10G A59C, the self-cleavage turned out to be 0.517.

Take A10G U55C: the self-cleavage is 0.407.

Consider A10G U55A, for which the self-cleavage is 0.407.

For the variant A10G C27A, the self-cleavage came out at 0.857.

With A10G C27G, the self-cleavage turned out to be 0.199.

As for A10U G19C, the self-cleavage came to 0.119.

For A10U G19U, the self-cleavage was 0.589.

Turning to A10U G19A, the self-cleavage worked out at 0.15.

Regarding A10G G56U, the self-cleavage turned out to be 0.567.

Take A10G G56C: the self-cleavage turned out to be 0.473.

Turning to A10G G56A, the self-cleavage was determined as 0.784.

For the variant A10G C39A, the self-cleavage came to 0.42.

For A10G C39G, the self-cleavage came out at 0.595.

For A10G C39U, the self-cleavage was 0.633.

Take A10U C32U: the self-cleavage is 1.02.

As to A10U C32G, the self-cleavage was 0.64.

For the variant A10U C32A, the self-cleavage worked out at 0.93.

As for A10G G14A, the self-cleavage was 0.195.

As to A10G G14U, the self-cleavage is 0.12.

As to A10U G11U, the self-cleavage amounted to 0.908.

With A10G G48C, the self-cleavage stood at 0.968.

In the case of A10G G48U, the self-cleavage turned out to be 1.

Take A10G G48A: the self-cleavage is 0.898.

As for A10U, the self-cleavage came to 1.

In the case of A10G U61G, the self-cleavage came to 0.468.

For A10G U61C, the self-cleavage was determined as 0.291.

As for A10U A23U, the self-cleavage came to 1.

Consider A10U A23G, for which the self-cleavage stood at 0.983.

For the variant A10U A23C, the self-cleavage was found to be 0.968.

With A10G A42U, the self-cleavage is 0.78.

Regarding A10U C45A, the self-cleavage turned out to be 0.998.

Turning to A10U C45U, the self-cleavage amounted to 0.958.

Take A10G G25C: the self-cleavage turned out to be 0.125.

Turning to A10G U53G, the self-cleavage stood at 0.646.

Take A10G U43C: the self-cleavage amounted to 0.651.

As for A10G U43A, the self-cleavage was determined as 0.455.

Regarding A10G U43G, the self-cleavage was 0.344.

For the variant A10G U46C, the self-cleavage turned out to be 0.907.

For A10G U46G, the self-cleavage is 0.901.

Turning to A10G G30C, the self-cleavage came to 0.94.

As for A10U A60C, the self-cleavage amounted to 0.384.

Take A10U A60U: the self-cleavage amounted to 0.58.

In the case of A10U C57U, the self-cleavage was 0.369.

Consider A10U C57G, for which the self-cleavage was found to be 0.307.

Consider A10U C54U, for which the self-cleavage amounted to 1.01.

For A10U G30A, the self-cleavage was determined as 0.922.

Consider A10U G30C, for which the self-cleavage came to 0.992.

For the variant A10U G17C, the self-cleavage worked out at 0.168.

In the case of A10U G17U, the self-cleavage came to 0.512.

For A10G U21A, the self-cleavage amounted to 0.83.

As for A10G U21C, the self-cleavage came to 0.619.

Consider A10G U21G, for which the self-cleavage came to 0.39.

Turning to A10U G14C, the self-cleavage was found to be 0.482.

Turning to A10U G14A, the self-cleavage was found to be 0.622.

A10G C32G: the self-cleavage came to 0.762.

Turning to A10U A59C, the self-cleavage came out at 0.778.

As to A10U A59U, the self-cleavage came out at 0.879.

As to A10G U69G, the self-cleavage worked out at 0.978.

As for A10G U69C, the self-cleavage is 1.06.

A10G U69A: the self-cleavage is 0.981.

Turning to A10G G58C, the self-cleavage turned out to be 0.888.

As to A10G G58A, the self-cleavage came to 0.969.

For the variant A10U A51C, the self-cleavage was 0.962.

A10G U67G: the self-cleavage is 0.757.

As for A10G U67A, the self-cleavage was 0.847.

Consider A10U A16C, for which the self-cleavage is 0.281.

A10U A13C: the self-cleavage is 0.808.

As for A10G C45U, the self-cleavage came to 0.901.

Turning to A10G C45A, the self-cleavage came out at 0.784.

With A10G C22G, the self-cleavage turned out to be 0.145.

For the variant A10G C22U, the self-cleavage worked out at 0.23.

In the case of A10U C27G, the self-cleavage turned out to be 0.17.

Consider A10G U49C, for which the self-cleavage worked out at 0.99.

Turning to A10G U49G, the self-cleavage was determined as 0.907.

In the case of A10G U49A, the self-cleavage was found to be 0.932.

For the variant A10G G11C, the self-cleavage was 0.79.

Consider A10G G11A, for which the self-cleavage was determined as 0.143.

With A10G G11U, the self-cleavage is 0.743.

Regarding A10G C63G, the self-cleavage is 0.338.

Regarding A10G C63U, the self-cleavage was 0.615.

For the variant A10G C63A, the self-cleavage stood at 0.253.
